Measured values taken from patent US20260250410A1, “ANTIBODY AND USE THEREOF” (SICHUAN HUIYU PHARMACEUTICAL CO., LTD., priority 2022, published 2026).

T1: HuCDCP1-C (Homo sapiens, UniProt Q9H5V8)
T1 construct: made in house; host or cells: HEK-293T
T1 sequence (Q9H5V8 30-667): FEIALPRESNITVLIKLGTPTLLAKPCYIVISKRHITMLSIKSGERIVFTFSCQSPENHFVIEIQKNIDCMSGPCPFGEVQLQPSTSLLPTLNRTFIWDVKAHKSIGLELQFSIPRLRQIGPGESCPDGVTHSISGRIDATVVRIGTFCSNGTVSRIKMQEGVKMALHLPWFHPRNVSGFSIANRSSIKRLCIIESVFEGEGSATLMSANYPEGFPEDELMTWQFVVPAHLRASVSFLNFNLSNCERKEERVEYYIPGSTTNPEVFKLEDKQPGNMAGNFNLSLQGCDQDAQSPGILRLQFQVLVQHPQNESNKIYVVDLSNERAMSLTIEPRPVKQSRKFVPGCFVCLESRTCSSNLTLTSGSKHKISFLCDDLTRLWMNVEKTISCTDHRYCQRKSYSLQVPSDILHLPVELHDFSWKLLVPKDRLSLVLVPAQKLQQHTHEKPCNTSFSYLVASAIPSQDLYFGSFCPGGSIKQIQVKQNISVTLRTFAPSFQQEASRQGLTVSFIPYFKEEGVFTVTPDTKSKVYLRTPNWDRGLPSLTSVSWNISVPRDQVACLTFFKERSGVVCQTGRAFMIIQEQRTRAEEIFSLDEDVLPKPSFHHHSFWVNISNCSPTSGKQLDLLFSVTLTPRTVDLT

B1: 1CP-061: anti-CDCP1 murine monoclonal antibody (hybridoma); VH SEQ ID NO: 262, VL SEQ ID NO: 312 (antibody, V domains shown)
VH: EVQLKESGAELVRPGASVKLSCKASGYTFTSYWINWVRQRPGQGLEWIGNIYPSDSYTNYNQKFKDKATLTVDKSSSTAYMQLSSPTSEDSAVYYCTRCLRRRDWYFDVWGQGTTVTVSS
VL: DVVMTQTPASLAVSLGQRATISCRASESVDYSGYSFMHWYQQKPGQPPKLLIYRASNLESGIPARFSGSGSRTDFTLTINPVEADDVATYYCQQSNEDPYTFGGGTKLEIK
modifications: 1CP-061 heavy chain variable region; 1CP-061 light chain variable region
B2: 1CP-062: anti-CDCP1 murine monoclonal antibody (hybridoma); VH SEQ ID NO: 264, VL SEQ ID NO: 314 (antibody, V domains shown)
VH: EVKLVESGPGLVAPSQSLSITCTVSGFSLTTYGVHWVRQPPGKGLEWLVVIWSDGNTTYNSALKSRLSINKDNSKSQVFLKMNSLQTDDTAMYYCAKNYRNYDYAMDYWGQGTTVTVSS
VL: DIVMTQTPASLAVSLGQRATISCRASESVDSYGNSFMHWYQQKPGQPPKLLIYRASNLESGIPARFSGSGSRTDFTLTINPVEADDVATYYCQQSNEDPYTFGGGTKLEIK
modifications: 1CP-062 heavy chain variable region; 1CP-062 light chain variable region
B3: 6G9: anti-CDCP1 murine monoclonal antibody (hybridoma); VH SEQ ID NO: 244, VL SEQ ID NO: 295 (antibody, V domains shown)
VH: EVQLKESGPGLVKPSQSLSLTCTVTGYSITSDYAWNWIRQFPGNKLEWMGYIIYSGRTSYNPSLKSRISITRDTSKNQFFLQLNSVTTEDTATYYCAREDYYGGSYGGLDYWGQGTTVTVSS
VL: DIVMTQSPLSLPVSLGDQASISCRSSQSIVHSNGNTYLEWYLQKPGQSPKLLIYKVSNRFSGVPDRFSGSGSGTDFTLKISRVEAEDLGVYYCFQGSHVPWTFGGGTKLEIK
modifications: 6G9 heavy chain variable region; 6G9 light chain variable region
B4: 3F1A11-H-12: anti-CDCP1 murine monoclonal antibody (hybridoma); VH SEQ ID NO: 248, VL SEQ ID NO: 296 (antibody, V domains shown)
VH: EVKLVESGPGLVKPSQSLSLTCSVTGYSITSGYYWNWIRQFPGNKLDWMGYITYDDSHYYNPSLKDRLSITRDTSKNQFFLKLNSVTAEDTATYFCARGNYYANYPHAMDYWGQGTTVTVSS
VL: EIVLTQSPLSLPVSLGDQASISCRSRQTLVHTNGNTYLDWYLQKPGQSPKLLIYKVSIRFSGVPDRFSGSRSGTDFTLKISRVEAEDLGIYYCFQGSHVPWTFGGGTKLEIK
modifications: 3F1A11-H-12 heavy chain variable region; 3F1A11/3F1A11-H-12 light chain variable region
B5: 3F1A11: anti-CDCP1 murine monoclonal antibody (hybridoma); VH SEQ ID NO: 245, VL SEQ ID NO: 296 (antibody, V domains shown)
VH: EVKLVESGPGLVKPSQSLSLTCTVTGYSITSDYAWNWIRQFPGNKLEWMGYISYNTYTSYNPSLKSRISVTRDTSKNQFFLQLKSVTIEDTATYFCAGGDYYGTGAVDYWGQGTTVTVSS
VL: EIVLTQSPLSLPVSLGDQASISCRSRQTLVHTNGNTYLDWYLQKPGQSPKLLIYKVSIRFSGVPDRFSGSRSGTDFTLKISRVEAEDLGIYYCFQGSHVPWTFGGGTKLEIK
modifications: 3F1A11 heavy chain variable region; 3F1A11/3F1A11-H-12 light chain variable region
B6: 5G9: anti-CDCP1 murine monoclonal antibody (hybridoma); VH SEQ ID NO: 241, VL SEQ ID NO: 292 (antibody, V domains shown)
VH: EVQLQQSGTVLARPGASVKMSCKASGYIFLNYWMHWVKQRPGQGLEWIGGIYPGNTDTTYNQKFKGKAKVTAVTSATTAYMELSSLTNEDSAVYYCIRYDYDRGMDYWGQGTTVTVSS
VL: DIVMTQAPAIMSASPGEKVTISCSASSSVSYIYWYQQKPGSSPKPWIYRTSNLASGVPARFSGSGSGTSYSLTISSMEAEDAATYYCQQYHSYPYTFGGGTKLEIK
modifications: 5G9 heavy chain variable region; 5G9 light chain variable region
B7: 1CP-063: anti-CDCP1 murine monoclonal antibody (hybridoma); VH SEQ ID NO: 263, VL SEQ ID NO: 313 (antibody, V domains shown)
VH: EVNLKESGPELVKPGASVRISCKASGYTFTSYYIHWVKQRPGQGLEWIGWIYPGNVNSKYNEKFKGKVTLTADKSSITAYMQLSSLTSEDSAVYFCAREDYGHYYAMDYWGQGTTVTVSS
VL: DIVMTQSPSSMYASLGERVTITCKASQDIKSYLSWYQQKPWKSPKTLIYYATSLADGVPSRFSGSGSGQDYSLTISSLESDDTATYYCLQYGESPWTFGGGTKLEIK
modifications: 1CP-063 heavy chain variable region; 1CP-063 light chain variable region
B8: 24G4: anti-CDCP1 murine monoclonal antibody (hybridoma); VH SEQ ID NO: 261, VL SEQ ID NO: 311 (antibody, V domains shown)
VH: EVQLKESGAELVRSGASVKLSCTASGFNIKDYYIHWVKQRPEQGLEWIGWIDPENGDTEYVPKFQGKATLTADTSSNTAYLQLNSLTSEDTAVYYCNPCGTGPWFAYWGQGTTVTVSS
VL: DIQMTQSPAILSASPGEKVTMTCRASSSVSYIHWYQQKPGSSPDPWIYATSFLASGVPGRFSGSGSGTSYSLTISRLEAEDAATYYCQQWNSSPFTFGGGTKLEIK
modifications: 24G4 heavy chain variable region; 24G4 light chain variable region
B9: 1CP-116: humanized anti-CDCP1 antibody produced by 8E5; VH SEQ ID NO: 347, VL SEQ ID NO: 358 (antibody, V domains shown)
VH: QVQLVQSGSELKKPGASVKVSCKASGYTLTDFSMHWVRQAPGQGLEWMGWINTETGAPTYADDFKGRFVFSLDTSVSTAYLQISSLKAEDTAVYYCSRGRDYDPHFDYWGQGTLVTVSS
VL: EIVLTQSPATLSLSPGERATLSCRASQSISDFLHWYQQKPGQSPRLLIKYASQSISGIPARFSGSGSGSDFTLTISSVEPEDFAVYYCQSAHSFPYTFGQGTKLEIK
modifications: humanized antibody 8E5 heavy chain variable region 01; humanized antibody 8E5 light chain variable region 02

Columns and labels:
[1] = tested on: MDA-MB-231 cells; test: Endocytosis capacity of murine monoclonal antibody (flow cytometry internalization); type: cell-based, human; conditions: antibody 1.5 μg/mL; for Internalization MDA-MB-231 (%) 2 h: MDA-MB-231, 2 h at 37° C.; for Internalization MDA-MB-231 (%) 0.5 h: MDA-MB-231, 0.5 h at 37° C.; for Internalization MDA-MB-231 (%) 1 h: MDA-MB-231, 1 h at 37° C.
Protocol: (§1) The endocytosis capacity of the antibody was detected for 0.5 to 2 hours. MDA-MB-231 and PC3 cells were subjected to digestion with 5 mM EDTA, and plated at 4×10^4 cells/well after cell counting. After adding an Fc blocker (Human TruStain FcX™, Biolegend, 422302) and blocking at room temperature for 10 mins, a test antibody (1.5 μg/mL) was added, and the mixture was incubated at 4° C. for 30 mins, centrifuged, and washed twice with PBS+2% FBS, then the cells were divided into four equal portions (labeled as 0 h, 0.5 h, 1 h, 2 h), cells labeled as 0.5 h, 1 h, 2 h time points were added to a cell culture medium at 200 µL/well, and cultured at 37° C. for 0.5 h, 1 h, 2 h, respectively. Cells at 0 h point were centrifuged to remove supernatant, a secondary antibody (PE anti-human IgG Fc Antibody, Biolegend, 410708) was added, and the mixture was incubated at 4° C. for 30 mins, centrifuged, and washed twice with PBS+2% FBS, and detection was performed using a flow cytometer. After incubation of cells labeled as 0.5 h, 1 h, and 2 h points at 37° C. was completed, a secondary antibody was added (in the same steps as those at 0 h point), Geo-MFI of the signal under the same voltage was collected as detection signal at 0 h, and antibody internalization rate was calculated according to the following equation: Internalization (%)=(Geo-MFI (0 h)-Geo-MFI (0.5, 1, 2 h))/Geo-MFI (0 h)×100%.

[2] = tested on: PC3 cells; test: as above; type: cell-based, human; conditions: antibody 1.5 μg/mL; for Internalization PC3 (%) 2 h: PC3, 2 h at 37° C.; for Internalization PC3 (%) 0.5 h: PC3, 0.5 h at 37° C.; for Internalization PC3 (%) 1 h: PC3, 1 h at 37° C.
Protocol: as §1

[3] = target: T1, HuCDCP1-C; test: Caterra affinity of humanized anti-CDCP1 antibodies; type: binding; conditions: HuCDCP1-C 2 μg/ml immobilized
Protocol: The humanized anti-CDCP1 antibodies obtained from Example 11 were subjected to gene cloning, constructed into pTT5 expression vector for a small amount of expression in CHO cells (Expi-CHOS: Gibco A29127), and purified with an Fc affinity column (AT Protein A Diamond Plus. No. AA402312). Antibody purity was analyzed by HPLC and determined by Nanodrop. High-throughput affinity assay was carried out for a small amount of antibodies by Caterra.

Row | Molecule | Internalization MDA-MB-231 (%) 2 h [1] | Internalization PC3 (%) 2 h [2] | Internalization MDA-MB-231 (%) 0.5 h [1] | Internalization MDA-MB-231 (%) 1 h [1] | Internalization PC3 (%) 0.5 h [2] | Internalization PC3 (%) 1 h [2] | ka [3] | kd [3]
1 | B1 | 42.68% | 28.00% |  |  |  |  |  | 
2 | B2 | 59.61% | 66.74% |  |  |  |  |  | 
3 | B3 | 88.89% | 87.67% | 75.76% | 86.81% | 60.58% | 77.88% |  | 
4 | B4 | 37.57% | 33.83% |  |  |  |  |  | 
5 | B5 | 38.10% | 51.76% |  |  |  |  |  | 
6 | B6 | 0.00% | 0.00% | 0.00% | 0.00% | 0.00% | 0.00% |  | 
7 | B7 | 49.71% | 62.68% |  |  |  |  |  | 
8 | B8 | 83.23% | 82.61% | 55.98% | 70.68% | 46.97% | 67.07% |  | 
9 | B9 |  |  |  |  |  |  | 128000 M⁻¹ s⁻¹ | 4.59e-05 s⁻¹
